According to US20090252749A1:
Where “and” joins values, the source holds several entries; their conditions need not be identical. Equal entries are not always repeated.

Biological target: B7 protein on the antigen presenting cell (Daudi B cells)
Assay: cell-based or functional assay

CTLA4^A29YL104E-Ig (Fc fusion)
EC50 (ng/mL), human IL-2 promoter mediated luciferase activity: 19.1 ng/mL and 21.5 ng/mL and 21.8 ng/mL
Lower Asymptote (CPS), human IL-2 promoter mediated luciferase activity: 27000 CPS and 30000 CPS and 29000 CPS
Upper Asymptote (CPS), human IL-2 promoter mediated luciferase activity: 81000 CPS and 85000 CPS and 88000 CPS
